Holding throughout (test): FRET or BRET; HEK293 cells transfected with Rluc-ADGRG2-ΔGPS-β WT or mutants, stimulated by increasing concentrations of FITC-conjugated VPM-p15; saturation curves fitted with GraphPad; each experiment repeated 6 times
Details in all cases: one partner purified
On the technique in general: In BRET a luciferase serves as donor, and the signal depends on an acceptor being close.

One test deals with T1, Rluc-ADGRG2-ΔGPS-β V731A (mouse, UniProt Q8CJ12-3 38-995, V731A).
T1 construct: ADGRG2 (GPR64), mouse, ADGRG2-ΔGPS-β: the entire ECD removed; source: HEK293, transfected, on cells; not shown: Rluc, N-terminal, kept
T1 sequence (Q8CJ12 other isoform, or with tags, fused parts or gaps V731A | V731A | V731A V731A): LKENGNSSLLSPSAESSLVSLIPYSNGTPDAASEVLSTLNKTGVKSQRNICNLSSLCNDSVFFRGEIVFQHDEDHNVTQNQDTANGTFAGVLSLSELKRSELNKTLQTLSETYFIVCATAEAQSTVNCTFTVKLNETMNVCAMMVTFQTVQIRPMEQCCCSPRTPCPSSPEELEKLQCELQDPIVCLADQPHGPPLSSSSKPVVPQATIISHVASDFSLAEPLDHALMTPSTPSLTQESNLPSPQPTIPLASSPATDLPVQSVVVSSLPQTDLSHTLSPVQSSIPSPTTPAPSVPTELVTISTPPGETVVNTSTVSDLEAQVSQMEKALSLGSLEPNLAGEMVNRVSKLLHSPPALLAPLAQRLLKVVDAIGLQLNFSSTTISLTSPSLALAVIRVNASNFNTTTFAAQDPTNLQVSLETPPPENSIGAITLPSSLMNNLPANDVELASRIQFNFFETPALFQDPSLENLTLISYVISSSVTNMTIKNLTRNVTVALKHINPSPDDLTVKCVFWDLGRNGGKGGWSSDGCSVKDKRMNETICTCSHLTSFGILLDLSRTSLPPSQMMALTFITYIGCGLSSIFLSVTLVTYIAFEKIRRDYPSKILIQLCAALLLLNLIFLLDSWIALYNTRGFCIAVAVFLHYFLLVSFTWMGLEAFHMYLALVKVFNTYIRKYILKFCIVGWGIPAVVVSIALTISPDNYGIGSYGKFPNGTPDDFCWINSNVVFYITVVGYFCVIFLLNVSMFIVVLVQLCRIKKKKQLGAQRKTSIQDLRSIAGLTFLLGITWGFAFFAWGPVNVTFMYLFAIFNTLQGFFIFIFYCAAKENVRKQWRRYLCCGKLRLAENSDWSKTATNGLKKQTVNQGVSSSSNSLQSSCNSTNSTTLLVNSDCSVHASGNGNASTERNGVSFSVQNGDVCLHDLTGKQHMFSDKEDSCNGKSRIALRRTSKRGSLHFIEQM

For test [1], the target named is T2, Rluc-ADGRG2-ΔGPS-β wildtype (mouse, UniProt Q8CJ12-3 38-995).
T2 construct: also called WT; ADGRG2-ΔGPS-β WT; source: HEK293, transfected, on cells; not shown: Rluc, N-terminal, kept
T2 sequence (Q8CJ12 other isoform, or with tags, fused parts or gaps mutant): as the sequence (Q8CJ12 other isoform, or with tags, fused parts or gaps V731A | V731A | V731A V731A) above, with A694V counted along it

The next test concerns the target T3, Rluc-ADGRG2-ΔGPS-β V762A (mouse, UniProt Q8CJ12-3 38-995, V762A).
T3 construct: ADGRG2 (GPR64), mouse, ADGRG2-ΔGPS-β: the entire ECD removed; source: HEK293, transfected, on cells; not shown: Rluc, N-terminal, kept

The next test has as its target T4, Rluc-ADGRG2-ΔGPS-β M839A (mouse, UniProt Q8CJ12-3 38-995, M839A).
T4 construct: ADGRG2 (GPR64), mouse, ADGRG2-ΔGPS-β: the entire ECD removed; source: HEK293, transfected, on cells; not shown: Rluc, N-terminal, kept

Another test has as its target T5, Rluc-ADGRG2-ΔGPS-β F826A (mouse, UniProt Q8CJ12-3 38-995, F826A).
T5 construct: ADGRG2 (GPR64), mouse, ADGRG2-ΔGPS-β: the entire ECD removed; source: HEK293, transfected, on cells; not shown: Rluc, N-terminal, kept

Another test addresses T6, Rluc-ADGRG2-ΔGPS-β Y765A (mouse, UniProt Q8CJ12-3 38-995, Y765A).
T6 construct: ADGRG2 (GPR64), mouse, ADGRG2-ΔGPS-β: the entire ECD removed; source: HEK293, transfected, on cells; not shown: Rluc, N-terminal, kept

The next test has as its target T7, Rluc-ADGRG2-ΔGPS-β Y611A (mouse, UniProt Q8CJ12-3 38-995, Y611A).
T7 construct: ADGRG2 (GPR64), mouse, ADGRG2-ΔGPS-β: the entire ECD removed; source: HEK293, transfected, on cells; not shown: Rluc, N-terminal, kept

For a further test, the target named is T8, Rluc-ADGRG2-ΔGPS-β S661A (mouse, UniProt Q8CJ12-3 38-995, S661A).
T8 construct: ADGRG2 (GPR64), mouse, ADGRG2-ΔGPS-β: the entire ECD removed; source: HEK293, transfected, on cells; not shown: Rluc, N-terminal, kept
T8 sequence (Q8CJ12 other isoform, or with tags, fused parts or gaps S661A | S661A | S661A S661A): as the sequence (Q8CJ12 other isoform, or with tags, fused parts or gaps V731A | V731A | V731A V731A) above, with S624A, A694V counted along it

For another test, the target named is T9, Rluc-ADGRG2-ΔGPS-β I663A (mouse, UniProt Q8CJ12-3 38-995, I663A).
T9 construct: ADGRG2 (GPR64), mouse, ADGRG2-ΔGPS-β: the entire ECD removed; source: HEK293, transfected, on cells; not shown: Rluc, N-terminal, kept
T9 sequence (Q8CJ12 other isoform, or with tags, fused parts or gaps I663A | I663A | I663A I663A): as the sequence (Q8CJ12 other isoform, or with tags, fused parts or gaps V731A | V731A | V731A V731A) above, with I626A, A694V counted along it

The next test concerns the target T10, Rluc-ADGRG2-ΔGPS-β F747A (mouse, UniProt Q8CJ12-3 38-995, F747A).
T10 construct: ADGRG2 (GPR64), mouse, ADGRG2-ΔGPS-β: the entire ECD removed; source: HEK293, transfected, on cells; not shown: Rluc, N-terminal, kept

Another test addresses T11, Rluc-ADGRG2-ΔGPS-β T610A (mouse, UniProt Q8CJ12-3 38-995, T610A).
T11 construct: ADGRG2 (GPR64), mouse, ADGRG2-ΔGPS-β: the entire ECD removed; source: HEK293, transfected, on cells; not shown: Rluc, N-terminal, kept

The target in a further test is T12, Rluc-ADGRG2-ΔGPS-β I730A (mouse, UniProt Q8CJ12-3 38-995, I730A).
T12 construct: ADGRG2 (GPR64), mouse, ADGRG2-ΔGPS-β: the entire ECD removed; source: HEK293, transfected, on cells; not shown: Rluc, N-terminal, kept
T12 sequence (Q8CJ12 other isoform, or with tags, fused parts or gaps I730A | I730A | I730A I730A): as the sequence (Q8CJ12 other isoform, or with tags, fused parts or gaps V731A | V731A | V731A V731A) above, with I693A, A694V counted along it

The target of a further test is T13, Rluc-ADGRG2-ΔGPS-β F671A (mouse, UniProt Q8CJ12-3 38-995, F671A).
T13 construct: ADGRG2 (GPR64), mouse, ADGRG2-ΔGPS-β: the entire ECD removed; source: HEK293, transfected, on cells; not shown: Rluc, N-terminal, kept
T13 sequence (Q8CJ12 other isoform, or with tags, fused parts or gaps F671A | F671A | F671A F671A): as the sequence (Q8CJ12 other isoform, or with tags, fused parts or gaps V731A | V731A | V731A V731A) above, with F634A, A694V counted along it

The next test addresses T14, Rluc-ADGRG2-ΔGPS-β V768A (mouse, UniProt Q8CJ12-3 38-995, V768A).
T14 construct: ADGRG2 (GPR64), mouse, ADGRG2-ΔGPS-β: the entire ECD removed; source: HEK293, transfected, on cells; not shown: Rluc, N-terminal, kept

For another test, the target named is T15, Rluc-ADGRG2-ΔGPS-β W662A (mouse, UniProt Q8CJ12-3 38-995, W662A).
T15 construct: ADGRG2 (GPR64), mouse, ADGRG2-ΔGPS-β: the entire ECD removed; source: HEK293, transfected, on cells; not shown: Rluc, N-terminal, kept
T15 sequence (Q8CJ12 other isoform, or with tags, fused parts or gaps W662A | W662A | W662A W662A): as the sequence (Q8CJ12 other isoform, or with tags, fused parts or gaps V731A | V731A | V731A V731A) above, with W625A, A694V counted along it

Another test deals with T16, Rluc-ADGRG2-ΔGPS-β F838A (mouse, UniProt Q8CJ12-3 38-995, F838A).
T16 construct: ADGRG2 (GPR64), mouse, ADGRG2-ΔGPS-β: the entire ECD removed; source: HEK293, transfected, on cells; not shown: Rluc, N-terminal, kept
T16 sequence (Q8CJ12 other isoform, or with tags, fused parts or gaps F838A | F838A | F838A F838A): as the sequence (Q8CJ12 other isoform, or with tags, fused parts or gaps V731A | V731A | V731A V731A) above, with A694V, F801A counted along it

Non-standard residues stand in square brackets, D forms with d. Primed or numbered codes have the meaning given here. No end group written: not given here. Phe(4-Me) = Cc1ccc(C[C@H](N)C(=O)O)cc1; FITC′ = not defined here

In general, EC50 refers to the concentration that produces a half-maximal response. Read a low EC50 as an effect from little substance.

T3 sequence (Q8CJ12 other isoform, or with tags, fused parts or gaps V762A | V762A | V762A V762A): as the sequence (Q8CJ12 other isoform, or with tags, fused parts or gaps V731A | V731A | V731A V731A) above, with A694V, V725A counted along it
T5 sequence (Q8CJ12 other isoform, or with tags, fused parts or gaps F826A | F826A | F826A F826A): as the sequence (Q8CJ12 other isoform, or with tags, fused parts or gaps V731A | V731A | V731A V731A) above, with A694V, F789A counted along it
T10 sequence (Q8CJ12 other isoform, or with tags, fused parts or gaps F747A | F747A | F747A F747A): as the sequence (Q8CJ12 other isoform, or with tags, fused parts or gaps V731A | V731A | V731A V731A) above, with A694V, F710A counted along it
T6 sequence (Q8CJ12 other isoform, or with tags, fused parts or gaps Y765A | Y765A | Y765A Y765A): as the sequence (Q8CJ12 other isoform, or with tags, fused parts or gaps V731A | V731A | V731A V731A) above, with A694V, Y728A counted along it
T11 sequence (Q8CJ12 other isoform, or with tags, fused parts or gaps T610A | T610A | T610A T610A): as the sequence (Q8CJ12 other isoform, or with tags, fused parts or gaps V731A | V731A | V731A V731A) above, with T573A, A694V counted along it
T7 sequence (Q8CJ12 other isoform, or with tags, fused parts or gaps Y611A | Y611A | Y611A Y611A): as the sequence (Q8CJ12 other isoform, or with tags, fused parts or gaps V731A | V731A | V731A V731A) above, with Y574A, A694V counted along it
T4 sequence (Q8CJ12 other isoform, or with tags, fused parts or gaps M839A | M839A | M839A M839A): as the sequence (Q8CJ12 other isoform, or with tags, fused parts or gaps V731A | V731A | V731A V731A) above, with A694V, M802A counted along it
T14 sequence (Q8CJ12 other isoform, or with tags, fused parts or gaps V768A | V768A | V768A V768A): as the sequence (Q8CJ12 other isoform, or with tags, fused parts or gaps V731A | V731A | V731A V731A) above, with A694V, V731A counted along it

Regarding VS[Phe(4-Me)]GILLDLSRTSLP-{FITC′} [FITC-conjugated VPM-p15 (ADGRG2 Stachel peptide p15 T1V/F3Phe(4-Me))], the EC50 with Rluc-ADGRG2-ΔGPS-β V731A is 0.838 µM; in test [1], 0.936 µM; with Rluc-ADGRG2-ΔGPS-β V762A, 1.19 µM; in the test with Rluc-ADGRG2-ΔGPS-β M839A, 0.896 µM; with Rluc-ADGRG2-ΔGPS-β F826A, 1.17 µM; in the test with Rluc-ADGRG2-ΔGPS-β Y765A it was 0.905 µM. The EC50 with Rluc-ADGRG2-ΔGPS-β Y611A was determined as 0.712 µM; in the test with Rluc-ADGRG2-ΔGPS-β S661A, 0.778 µM; with Rluc-ADGRG2-ΔGPS-β I663A it was 0.772 µM; with Rluc-ADGRG2-ΔGPS-β F747A, 0.759 µM; in the test with Rluc-ADGRG2-ΔGPS-β T610A, 1.12 µM; with Rluc-ADGRG2-ΔGPS-β I730A, 1.2 µM. Also, the EC50 was 0.88 µM with Rluc-ADGRG2-ΔGPS-β F671A, 1.04 µM in the test with Rluc-ADGRG2-ΔGPS-β V768A, 1.06 µM with Rluc-ADGRG2-ΔGPS-β W662A and 0.767 µM in the test with Rluc-ADGRG2-ΔGPS-β F838A.

(Values after PMC7948503, “Optimization of a peptide ligand for the adhesion GPCR ADGRG2 provides a potent tool to explore receptor biology” (The Journal of Biological Chemistry, 2020).)
